Reference: the supplement of paper PMC9428881
± gives the standard error.

Test: background-corrected fluorescence of 3'-dye-labeled ssDNA relative to brightest sequence (3'-GCGCG) (fraction); higher = brighter dye fluorescence (less quenching)
Experimental: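 Single-stranded DNA is synthesized in situ on glass microarrays by 5'->3' photolithographic synthesis, with a Cy3 or Cy5 phosphoramidite coupled at the 3' end next to all 1024 permuted pentamers P1-P5. The construct is 5'-T5-(ACGT minus P5..P1 trinucleotides)-T15-P5P4P3P2P1-dye-3'; the dye is a 3' terminal modification, not part of the sequence. Arrays were scanned at 532 nm (Cy3) or 635 nm (Cy5), background from unlabeled oligos was subtracted, and values are averaged over 10 replicate features per array and at least 3 independent syntheses.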

Sequence	background-corrected fluorescence (dye: Cy3 (3' terminal))	background-corrected fluorescence (dye: Cy5 (3' terminal))
TTTTTGCAGCAGCAGCAGCATTTTTTTTTTTTTTTTTTTT	0.489 ± 0.032	0.34 ± 0.015
TTTTTGCAGCAGCAGCATCATTTTTTTTTTTTTTTTTTTG [GTTTT]	0.461 ± 0.0051	0.334 ± 0.032
TTTTTGCAGCAGCAGCATGATTTTTTTTTTTTTTTTTTTC [CTTTT]	0.373 ± 0.032	0.257 ± 0.015
TTTTTGCAGCAGCAGCATGCTTTTTTTTTTTTTTTTTTTA [ATTTT]	0.501 ± 0.033	0.411 ± 0.028
TTTTTGCAGCAGCATCAGCATTTTTTTTTTTTTTTTTTGT [TGTTT]	0.649 ± 0.02	0.46 ± 0.028
TTTTTGCAGCAGCATCATCATTTTTTTTTTTTTTTTTTGG [GGTTT]	0.612 ± 0.01	0.444 ± 0.027
TTTTTGCAGCAGCATCATGATTTTTTTTTTTTTTTTTTGC [CGTTT]	0.495 ± 0.024	0.341 ± 0.032
TTTTTGCAGCAGCATCATGCTTTTTTTTTTTTTTTTTTGA [AGTTT]	0.634 ± 0.029	0.524 ± 0.03
TTTTTGCAGCAGCATGAGCATTTTTTTTTTTTTTTTTTCT [TCTTT]	0.463 ± 0.024	0.321 ± 0.019
TTTTTGCAGCAGCATGATCATTTTTTTTTTTTTTTTTTCG [GCTTT]	0.468 ± 0.011	0.327 ± 0.027
TTTTTGCAGCAGCATGATGATTTTTTTTTTTTTTTTTTCC [CCTTT]	0.363 ± 0.017	0.253 ± 0.015
TTTTTGCAGCAGCATGATGCTTTTTTTTTTTTTTTTTTCA [ACTTT]	0.482 ± 0.032	0.373 ± 0.046
TTTTTGCAGCAGCATGCGCATTTTTTTTTTTTTTTTTTAT [TATTT]	0.503 ± 0.033	0.364 ± 0.017
TTTTTGCAGCAGCATGCTCATTTTTTTTTTTTTTTTTTAG [GATTT]	0.511 ± 0.015	0.394 ± 0.048
TTTTTGCAGCAGCATGCTGATTTTTTTTTTTTTTTTTTAC [CATTT]	0.391 ± 0.039	0.292 ± 0.021
TTTTTGCAGCAGCATGCTGCTTTTTTTTTTTTTTTTTTAA [AATTT]	0.569 ± 0.036	0.439 ± 0.024
TTTTTGCAGCATCAGCAGCATTTTTTTTTTTTTTTTTGTT	0.554 ± 0.018	0.405 ± 0.024
TTTTTGCAGCATCAGCATCATTTTTTTTTTTTTTTTTGTG [GTGTT]	0.524 ± 0.031	0.397 ± 0.019
TTTTTGCAGCATCAGCATGATTTTTTTTTTTTTTTTTGTC [CTGTT]	0.407 ± 0.013	0.345 ± 0.024
TTTTTGCAGCATCAGCATGCTTTTTTTTTTTTTTTTTGTA [ATGTT]	0.576 ± 0.02	0.487 ± 0.053
TTTTTGCAGCATCATCAGCATTTTTTTTTTTTTTTTTGGT [TGGTT]	0.689 ± 0.017	0.593 ± 0.047
TTTTTGCAGCATCATCATCATTTTTTTTTTTTTTTTTGGG [GGGTT]	0.661 ± 0.029	0.549 ± 0.029

Sequence	background-corrected fluorescence (dye: Cy3 (3' terminal))	background-corrected fluorescence (dye: Cy5 (3' terminal))
TTTTTGCAGCATCATCATGATTTTTTTTTTTTTTTTTGGC [CGGTT]	0.556 ± 0.017	0.457 ± 0.023
TTTTTGCAGCATCATCATGCTTTTTTTTTTTTTTTTTGGA [AGGTT]	0.689 ± 0.02	0.638 ± 0.054
TTTTTGCAGCATCATGAGCATTTTTTTTTTTTTTTTTGCT [TCGTT]	0.482 ± 0.014	0.361 ± 0.019
TTTTTGCAGCATCATGATCATTTTTTTTTTTTTTTTTGCG [GCGTT]	0.559 ± 0.028	0.46 ± 0.036
TTTTTGCAGCATCATGATGATTTTTTTTTTTTTTTTTGCC [CCGTT]	0.41 ± 0.015	0.322 ± 0.059
TTTTTGCAGCATCATGATGCTTTTTTTTTTTTTTTTTGCA [ACGTT]	0.546 ± 0.025	0.456 ± 0.039
TTTTTGCAGCATCATGCGCATTTTTTTTTTTTTTTTTGAT [TAGTT]	0.578 ± 0.013	0.453 ± 0.03
TTTTTGCAGCATCATGCTCATTTTTTTTTTTTTTTTTGAG [GAGTT]	0.542 ± 0.0086	0.429 ± 0.016
TTTTTGCAGCATCATGCTGATTTTTTTTTTTTTTTTTGAC [CAGTT]	0.461 ± 0.024	0.354 ± 0.04
TTTTTGCAGCATCATGCTGCTTTTTTTTTTTTTTTTTGAA [AAGTT]	0.634 ± 0.019	0.527 ± 0.03
TTTTTGCAGCATGAGCAGCATTTTTTTTTTTTTTTTTCTT	0.481 ± 0.015	0.348 ± 0.026
TTTTTGCAGCATGAGCATCATTTTTTTTTTTTTTTTTCTG [GTCTT]	0.472 ± 0.026	0.338 ± 0.046
TTTTTGCAGCATGAGCATGATTTTTTTTTTTTTTTTTCTC [CTCTT]	0.389 ± 0.03	0.272 ± 0.035
TTTTTGCAGCATGAGCATGCTTTTTTTTTTTTTTTTTCTA [ATCTT]	0.467 ± 0.02	0.404 ± 0.036
TTTTTGCAGCATGATCAGCATTTTTTTTTTTTTTTTTCGT [TGCTT]	0.564 ± 0.013	0.432 ± 0.025
TTTTTGCAGCATGATCATCATTTTTTTTTTTTTTTTTCGG [GGCTT]	0.59 ± 0.022	0.485 ± 0.024
TTTTTGCAGCATGATCATGATTTTTTTTTTTTTTTTTCGC [CGCTT]	0.503 ± 0.031	0.406 ± 0.088
TTTTTGCAGCATGATCATGCTTTTTTTTTTTTTTTTTCGA [AGCTT]	0.645 ± 0.025	0.533 ± 0.067
TTTTTGCAGCATGATGAGCATTTTTTTTTTTTTTTTTCCT [TCCTT]	0.444 ± 0.021	0.325 ± 0.036
TTTTTGCAGCATGATGATCATTTTTTTTTTTTTTTTTCCG [GCCTT]	0.488 ± 0.011	0.366 ± 0.035
TTTTTGCAGCATGATGATGATTTTTTTTTTTTTTTTTCCC [CCCTT]	0.35 ± 0.0099	0.266 ± 0.016
TTTTTGCAGCATGATGATGCTTTTTTTTTTTTTTTTTCCA [ACCTT]	0.453 ± 0.026	0.35 ± 0.028

Sequence	background-corrected fluorescence (dye: Cy3 (3' terminal))	background-corrected fluorescence (dye: Cy5 (3' terminal))
TTTTTGCAGCATGATGCGCATTTTTTTTTTTTTTTTTCAT [TACTT]	0.519 ± 0.033	0.378 ± 0.021
TTTTTGCAGCATGATGCTCATTTTTTTTTTTTTTTTTCAG [GACTT]	0.506 ± 0.032	0.358 ± 0.027
TTTTTGCAGCATGATGCTGATTTTTTTTTTTTTTTTTCAC [CACTT]	0.385 ± 0.01	0.289 ± 0.016
TTTTTGCAGCATGATGCTGCTTTTTTTTTTTTTTTTTCAA [AACTT]	0.545 ± 0.04	0.422 ± 0.055
TTTTTGCAGCATGCGCAGCATTTTTTTTTTTTTTTTTATT	0.5242 ± 0.0046	0.403 ± 0.029
TTTTTGCAGCATGCGCATCATTTTTTTTTTTTTTTTTATG [GTATT]	0.467 ± 0.015	0.366 ± 0.024
TTTTTGCAGCATGCGCATGATTTTTTTTTTTTTTTTTATC [CTATT]	0.473 ± 0.024	0.312 ± 0.018
TTTTTGCAGCATGCGCATGCTTTTTTTTTTTTTTTTTATA [ATATT]	0.538 ± 0.038	0.4 ± 0.028
TTTTTGCAGCATGCTCAGCATTTTTTTTTTTTTTTTTAGT [TGATT]	0.619 ± 0.012	0.5 ± 0.03
TTTTTGCAGCATGCTCATCATTTTTTTTTTTTTTTTTAGG [GGATT]	0.612 ± 0.027	0.489 ± 0.054
TTTTTGCAGCATGCTCATGATTTTTTTTTTTTTTTTTAGC [CGATT]	0.506 ± 0.028	0.385 ± 0.023
TTTTTGCAGCATGCTCATGCTTTTTTTTTTTTTTTTTAGA [AGATT]	0.6442 ± 0.0061	0.531 ± 0.036
TTTTTGCAGCATGCTGAGCATTTTTTTTTTTTTTTTTACT [TCATT]	0.49 ± 0.013	0.361 ± 0.047
TTTTTGCAGCATGCTGATCATTTTTTTTTTTTTTTTTACG [GCATT]	0.5 ± 0.023	0.398 ± 0.08
TTTTTGCAGCATGCTGATGATTTTTTTTTTTTTTTTTACC [CCATT]	0.388 ± 0.019	0.286 ± 0.017
TTTTTGCAGCATGCTGATGCTTTTTTTTTTTTTTTTTACA [ACATT]	0.502 ± 0.01	0.397 ± 0.025
TTTTTGCAGCATGCTGCGCATTTTTTTTTTTTTTTTTAAT [TAATT]	0.576 ± 0.018	0.412 ± 0.019
TTTTTGCAGCATGCTGCTCATTTTTTTTTTTTTTTTTAAG [GAATT]	0.536 ± 0.025	0.411 ± 0.026
TTTTTGCAGCATGCTGCTGATTTTTTTTTTTTTTTTTAAC [CAATT]	0.408 ± 0.011	0.314 ± 0.026
TTTTTGCAGCATGCTGCTGCTTTTTTTTTTTTTTTTTAAA [AAATT]	0.63 ± 0.021	0.487 ± 0.042
TTTTTGCATCAGCAGCAGCATTTTTTTTTTTTTTTTGTTT	0.511 ± 0.028	0.396 ± 0.06
TTTTTGCATCAGCAGCATCATTTTTTTTTTTTTTTTGTTG [GTTGT]	0.515 ± 0.027	0.373 ± 0.017
